Reference: US20050064518A1

How the values were obtained:
[1] = target: monoclonal antibody 117.1; assay: flow cytometry competition (representative plot): shed CA 125/O772P against 117.1 binding to OVCAR-3 cells
[2] = target: monoclonal antibody 621.1; assay: ELISA competition: shed CA 125/O772P at 25-fold excess against 621.1 binding to plate-bound O772P 3-repeat
monoclonal antibody 7A11 = assay: ELISA competition: shed CA 125/O772P at 25-fold excess against 7A11 binding to plate-bound O772P 3-repeat
monoclonal antibody 16H9 = assay: ELISA competition: shed CA 125/O772P at 25-fold excess against 16H9 binding to plate-bound O772P 3-repeat
[3] = target: monoclonal antibody 776.1; assay: ELISA competition: shed CA 125/O772P at 25-fold w/w excess against antibody binding to plate-bound O772P 3-repeat
[4] = target: monoclonal antibody 117.1; assay: as above
[5] = target: monoclonal antibody 368.1; assay: as above
[6] = target: monoclonal antibody 501.1; assay: as above
OC125 = assay: as above
monoclonal antibody 7H1 = assay: ELISA competition: shed CA 125/O772P at 25-fold excess against 7H1 binding to plate-bound O772P 3-repeat
monoclonal antibody 8E3 = assay: ELISA competition: shed CA 125/O772P at 25-fold excess against 8E3 binding to plate-bound O772P 3-repeat
M11 = assay: flow cytometry competition (representative plot): shed CA 125/O772P against M11 binding to OVCAR-3 cells
monoclonal antibody 7C6 = assay: ELISA competition: shed CA 125/O772P at 25-fold excess against 7C6 binding to plate-bound O772P 3-repeat
monoclonal antibody 4E7 = assay: ELISA competition: shed CA 125/O772P at 25-fold excess against 4E7 binding to plate-bound O772P 3-repeat
monoclonal antibody 8G9 = assay: ELISA competition: shed CA 125/O772P at 25-fold excess against 8G9 binding to plate-bound O772P 3-repeat
monoclonal antibody 8B5 = assay: ELISA competition: shed CA 125/O772P at 25-fold excess against 8B5 binding to plate-bound O772P 3-repeat
monoclonal antibody 16C7 = assay: ELISA competition: shed CA 125/O772P at 25-fold excess against 16C7 binding to plate-bound O772P 3-repeat
monoclonal antibody 8A1 = assay: ELISA competition: shed CA 125/O772P at 25-fold excess against 8A1 binding to plate-bound O772P 3-repeat
monoclonal antibody 8C3 = assay: ELISA competition: shed CA 125/O772P at 25-fold excess against 8C3 binding to plate-bound O772P 3-repeat
[7] = target: monoclonal antibody 654.1; assay: ELISA competition: shed CA 125/O772P at 25-fold excess against 654.1 binding to plate-bound O772P 3-repeat
[8] = target: monoclonal antibody 325.1; assay: ELISA competition: shed CA 125/O772P at 25-fold excess against 325.1 binding to plate-bound O772P 3-repeat
[9] = target: monoclonal antibody 446.1; assay: ELISA competition: shed CA 125/O772P at 25-fold excess against 446.1 binding to plate-bound O772P 3-repeat
[10] = target: monoclonal antibody 725.1; assay: ELISA competition: shed CA 125/O772P at 25-fold excess against 725.1 binding to plate-bound O772P 3-repeat
[11] = target: monoclonal antibody 633.1; assay: ELISA competition: shed CA 125/O772P at 25-fold excess against 633.1 binding to plate-bound O772P 3-repeat
monoclonal antibody 15C9 = assay: ELISA competition: shed CA 125/O772P at 25-fold excess against 15C9 binding to plate-bound O772P 3-repeat
monoclonal antibody 7G10 = assay: ELISA competition: shed CA 125/O772P at 25-fold excess against 7G10 binding to plate-bound O772P 3-repeat
monoclonal antibody 7F10 = assay: ELISA competition: shed CA 125/O772P at 25-fold excess against 7F10 binding to plate-bound O772P 3-repeat

Sequence of monoclonal antibody 117.1 (chain, as listed by the source, chain 1 of 2): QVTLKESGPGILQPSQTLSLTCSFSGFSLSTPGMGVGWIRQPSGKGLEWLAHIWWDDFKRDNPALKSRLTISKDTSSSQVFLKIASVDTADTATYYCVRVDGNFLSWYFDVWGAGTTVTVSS
Sequence of monoclonal antibody 117.1 (chain, as listed by the source, chain 2 of 2): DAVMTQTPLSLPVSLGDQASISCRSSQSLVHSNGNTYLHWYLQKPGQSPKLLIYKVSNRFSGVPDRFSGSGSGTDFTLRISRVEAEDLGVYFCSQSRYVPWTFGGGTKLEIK
Sequence of monoclonal antibody 501.1 (chain, as listed by the source, chain 1 of 2): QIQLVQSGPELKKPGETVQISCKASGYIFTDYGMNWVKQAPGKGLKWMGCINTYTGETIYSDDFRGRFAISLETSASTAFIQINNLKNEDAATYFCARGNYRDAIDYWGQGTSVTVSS
Sequence of monoclonal antibody 501.1 (chain, as listed by the source, chain 2 of 2): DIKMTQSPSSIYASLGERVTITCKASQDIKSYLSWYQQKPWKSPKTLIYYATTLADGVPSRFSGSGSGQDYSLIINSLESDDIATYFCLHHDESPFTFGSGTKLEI
Sequence of monoclonal antibody 368.1 (chain, as listed by the source, chain 1 of 2): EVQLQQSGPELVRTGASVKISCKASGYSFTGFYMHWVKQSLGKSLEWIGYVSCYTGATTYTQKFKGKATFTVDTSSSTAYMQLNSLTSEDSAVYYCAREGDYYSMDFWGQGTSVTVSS
Sequence of monoclonal antibody 368.1 (chain, as listed by the source, chain 2 of 2): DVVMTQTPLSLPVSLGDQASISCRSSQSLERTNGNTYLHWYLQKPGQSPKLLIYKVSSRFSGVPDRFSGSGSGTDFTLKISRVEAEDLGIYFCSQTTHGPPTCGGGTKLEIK
Sequence of OC125 (chain, as listed by the source, chain 1 of 2): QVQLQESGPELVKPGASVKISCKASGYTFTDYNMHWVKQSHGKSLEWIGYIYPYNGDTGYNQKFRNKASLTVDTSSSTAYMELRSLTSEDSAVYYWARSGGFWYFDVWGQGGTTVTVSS
Sequence of OC125 (chain, as listed by the source, chain 2 of 2): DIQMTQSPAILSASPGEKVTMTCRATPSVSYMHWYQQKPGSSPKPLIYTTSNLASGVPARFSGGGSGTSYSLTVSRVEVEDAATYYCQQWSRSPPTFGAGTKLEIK
Sequence of monoclonal antibody 776.1 (chain, as listed by the source, chain 1 of 2): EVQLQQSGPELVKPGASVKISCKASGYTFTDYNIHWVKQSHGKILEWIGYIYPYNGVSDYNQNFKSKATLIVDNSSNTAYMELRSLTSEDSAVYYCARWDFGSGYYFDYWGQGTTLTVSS
Sequence of monoclonal antibody 776.1 (chain, as listed by the source, chain 2 of 2): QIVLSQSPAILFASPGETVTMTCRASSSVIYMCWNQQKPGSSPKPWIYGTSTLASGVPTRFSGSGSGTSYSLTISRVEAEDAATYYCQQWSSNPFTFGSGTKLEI
Sequence of monoclonal antibody 16H9 (chain, as listed by the source, chain 1 of 2): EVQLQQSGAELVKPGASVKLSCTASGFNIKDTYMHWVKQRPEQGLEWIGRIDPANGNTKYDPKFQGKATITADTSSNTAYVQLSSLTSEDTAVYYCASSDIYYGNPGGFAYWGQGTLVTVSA
Sequence of monoclonal antibody 16H9 (chain, as listed by the source, chain 2 of 2): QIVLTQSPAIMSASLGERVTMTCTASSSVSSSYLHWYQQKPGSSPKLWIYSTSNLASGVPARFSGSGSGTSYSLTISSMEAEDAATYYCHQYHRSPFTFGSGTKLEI
Sequence of monoclonal antibody 725.1 (chain, as listed by the source, chain 1 of 2): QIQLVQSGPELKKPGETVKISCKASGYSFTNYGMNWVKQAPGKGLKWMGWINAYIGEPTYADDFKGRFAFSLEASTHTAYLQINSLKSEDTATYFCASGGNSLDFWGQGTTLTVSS
Sequence of monoclonal antibody 725.1 (chain, as listed by the source, chain 2 of 2): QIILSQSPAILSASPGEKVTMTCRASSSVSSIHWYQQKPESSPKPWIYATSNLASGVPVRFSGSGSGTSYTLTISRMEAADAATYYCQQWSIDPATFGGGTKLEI

shed CA 125/O772P polypeptide, Q8WXI7 1-14401
IC50 [1]: > 1000 µg/mL
% inh. binding [2]: 2%
% inh. binding (monoclonal antibody 7A11): 5%
% inh. binding (monoclonal antibody 16H9): 0%
percent inhibition of binding [3]: 17%
percent inhibition of binding [4]: 11%
percent inhibition of binding [5]: 0%
percent inhibition of binding [6]: 15%
percent inhibition of binding (OC125): 95%
% inh. binding (monoclonal antibody 7H1): 4%
% inh. binding (monoclonal antibody 8E3): 4%
IC50 (M11): 3 µg/mL
% inh. binding (monoclonal antibody 7C6): 2%
% inh. binding (monoclonal antibody 4E7): 7%
% inh. binding (monoclonal antibody 8G9): 7%
% inh. binding (monoclonal antibody 8B5): 6%
% inh. binding (monoclonal antibody 16C7): 3%
% inh. binding (monoclonal antibody 8A1): 8%
% inh. binding (monoclonal antibody 8C3): 5%
% inh. binding [7]: 9%
% inh. binding [8]: 2%
% inh. binding [9]: 7%
% inh. binding [10]: 7%
% inh. binding [11]: 7%
% inh. binding (monoclonal antibody 15C9): 5%
% inh. binding (monoclonal antibody 7G10): 3%
% inh. binding (monoclonal antibody 7F10): 6%
